Measurements published in PMC10300122, “K235 acetylation couples with PSPC1 to regulate the m^6A demethylation activity of ALKBH5 and tumorigenesis” (Nature Communications, 2023).

T1: recombinant PSPC1-His (UniProt Q8WXF1 1-523)
T1 construct: paraspeckle component 1 (PSPC1) cloned into the pET 26b vector; source: E. coli BL21 (DE3), purified (His-tag Protein Purification Kit)
T1 sequence (looked up): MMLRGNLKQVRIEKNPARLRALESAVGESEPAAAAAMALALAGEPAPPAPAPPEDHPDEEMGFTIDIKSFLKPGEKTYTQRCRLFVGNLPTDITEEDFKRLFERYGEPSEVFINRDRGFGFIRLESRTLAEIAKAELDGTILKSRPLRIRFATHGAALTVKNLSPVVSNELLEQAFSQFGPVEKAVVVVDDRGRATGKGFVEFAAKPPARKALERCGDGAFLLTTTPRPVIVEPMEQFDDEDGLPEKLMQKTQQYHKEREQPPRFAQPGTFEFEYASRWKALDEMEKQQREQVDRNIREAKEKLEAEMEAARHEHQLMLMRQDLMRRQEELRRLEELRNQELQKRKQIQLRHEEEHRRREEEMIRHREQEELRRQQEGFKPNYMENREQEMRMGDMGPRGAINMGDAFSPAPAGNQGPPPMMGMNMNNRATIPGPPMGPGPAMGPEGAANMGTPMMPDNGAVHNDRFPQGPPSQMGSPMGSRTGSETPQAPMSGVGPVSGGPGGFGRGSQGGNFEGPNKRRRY


Biological target: T1, recombinant PSPC1-His
Experiment: pull-down; GST pull-down: GST-ALKBH5 on glutathione beads (untreated or K235-acetylated by immunopurified KAT8) incubated with PSPC1-His at 4 °C for 1 h; washed with 20 mM HEPES pH 7.6, 0.1 M KCl, 0.1 μM EDTA, 10% glycerol, 0.02% NP-40; western blot
Details: both partners purified

| binding result | Binder |
| --- | --- |
| binds | recombinant GST-ALKBH5 (enzyme, UniProt Q6P6C2 1-394, looked up, AlkB homolog 5 (ALKBH5) cloned into the pGEX vector; also called recombinant ALKBH5; source: E. coli BL21 (DE3), purified (Glutathione Sepharose)) MAAASGYTDLREKLKSMTSRDNYKAGSREAAAAAAAAVAAAAAAAAAAEPYPVSGAKRKYQEDSDPERSDYEEQQLQKEEEARKVKSGIRQMRLFSQDECAKIEARIDEVVSRAEKGLYNEHTVDRAPLRNKYFFGEGYTYGAQLQKRGPGQERLYPPGDVDEIPEWVHQLVIQKLVEHRVIPEGFVNSAVINDYQPGGCIVSHVDPIHIFERPIVSVSFFSDSALCFGCKFQFKPIRVSEPVLSLPVRRGSVTVLSGYAADEITHCIRPQDIKERRAVIILRKTRLDAPRLETKSLSSSVLPPSYASDRLSGNNRDPALKPKRSHRKADPDAAHRPRILEMDKEENRRSVLLPTHRRRGSFSSENYWRKSYESSEDCSEAAGSPARKVKMRRH |
| binds | recombinant K235-acetylated GST-ALKBH5 (enzyme, UniProt Q6P6C2 1-394, looked up, acetyl-lysine at 235, AlkB homolog 5 (ALKBH5) cloned into the pGEX vector; The same construct as m6 after treatment with KAT8; source: E. coli BL21 (DE3), purified (Glutathione Sepharose), then K235-acetylated by immunopurified KAT8) MAAASGYTDLREKLKSMTSRDNYKAGSREAAAAAAAAVAAAAAAAAAAEPYPVSGAKRKYQEDSDPERSDYEEQQLQKEEEARKVKSGIRQMRLFSQDECAKIEARIDEVVSRAEKGLYNEHTVDRAPLRNKYFFGEGYTYGAQLQKRGPGQERLYPPGDVDEIPEWVHQLVIQKLVEHRVIPEGFVNSAVINDYQPGGCIVSHVDPIHIFERPIVSVSFFSDSALCFGCKFQFKPIRVSEPVLSLPVRRGSVTVLSGYAADEITHCIRPQDIKERRAVIILRKTRLDAPRLETKSLSSSVLPPSYASDRLSGNNRDPALKPKRSHRKADPDAAHRPRILEMDKEENRRSVLLPTHRRRGSFSSENYWRKSYESSEDCSEAAGSPARKVKMRRH |
